Results as given in US20240092867A1 (UNIVERSITY OF CHICAGO, published 2024).

Columns and labels:
[1] = molecular target: T1, vascular endothelial growth factor (VEGF)-A165 (human, UniProt P15692-4 27-191); experiment: ELISA, peptide coated 50 nM
T1 construct: mature; Purchased in mature form, not glycosylated
Description: (§1) ELISA was performed as previously reported1. […] After blocking with 2% BSA solution containing PBS-T, 1 μg/mL of recombinant human VEGF-A121 (PeproTech), recombinant human VEGF-A145 (R & D Systems), or recombinant human VEGF-A165 (PeproTech) was added. Bound VEGF-A was detected with 1 μg/mL of mouse anti-human VEGF-A antibody (clone: 26503, R & D systems). After 60 min of incubation, horseradish peroxidase (HRP) conjugated goat anti-mouse antibody (1:2000 dilution, Dako) was added and incubated for another 60 min. Color development and the absorbance measurement were done as described above.

[2] = molecular target: T2, recombinant human VEGF-A145 (human, UniProt P15692-6 27-171); experiment: ELISA, peptide coated 50 nM
T2 sequence (looked up): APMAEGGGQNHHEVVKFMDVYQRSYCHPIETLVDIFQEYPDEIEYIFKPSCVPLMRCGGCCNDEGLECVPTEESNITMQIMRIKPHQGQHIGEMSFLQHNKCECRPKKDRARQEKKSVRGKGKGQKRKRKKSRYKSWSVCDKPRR
Description: as §1

[3] = molecular target: T3, vascular endothelial growth factor (VEGF)-A121 (human, UniProt P15692-9 27-147); experiment: ELISA; peptides and vWF forms coated at 50 nM, VEGF-A in solution, detected with anti-VEGF-A antibody [panel D]
T3 construct: mature; Purchased in mature form, not glycosylated
T3 sequence (looked up): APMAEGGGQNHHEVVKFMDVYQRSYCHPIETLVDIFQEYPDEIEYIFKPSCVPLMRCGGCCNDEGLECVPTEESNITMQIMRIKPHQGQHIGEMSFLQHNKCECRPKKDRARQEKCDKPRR
Description: (A) Diagram of exon sequence of VEGF-A showing inclusion (+) or exclusion (−) of heparin binding domain exons for the different VEGF-A isoforms. […] Bound VEGF-A was detected using a specific antibody for VEGF-A (n=4, mean±SD). Statistical comparisons were done using ANOVA with Tukey's test compared with BSA control. **p<0.01.
as §1

[4] = molecular target: T3, vascular endothelial growth factor …; experiment: ELISA, peptide coated
In short: (§2)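 Wells coated with 10 μg/mL laminin α3/α4/α5 LG-domain peptides, BSA-coated wells as non-binding control, blocked with 2% BSA PBS-T. Recombinant human GFs added at 1 μg/mL; bound GF detected with GF-specific biotinylated antibody plus streptavidin-HRP (n=4, mean±SEM).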

[5] = molecular target: T4, placental growth factor (PlGF)-2 (human, UniProt P49763-3 19-170); experiment: ELISA, peptide coated
T4 construct: mature; Purchased in mature form
T4 sequence (looked up): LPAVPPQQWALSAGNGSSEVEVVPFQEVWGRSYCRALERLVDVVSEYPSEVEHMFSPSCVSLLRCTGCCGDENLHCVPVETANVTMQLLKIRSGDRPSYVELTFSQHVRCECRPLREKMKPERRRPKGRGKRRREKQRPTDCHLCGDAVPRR
In short: as §2

[6] = molecular target: T5, placental growth factor (PlGF)-1 (human, UniProt P49763-2 19-149); experiment: ELISA, peptide coated
T5 construct: mature; Purchased in mature form
T5 sequence (looked up): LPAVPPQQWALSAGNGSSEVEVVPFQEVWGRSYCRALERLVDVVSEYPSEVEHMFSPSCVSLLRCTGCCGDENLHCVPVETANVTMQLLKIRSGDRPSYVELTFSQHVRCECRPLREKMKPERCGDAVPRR
In short: as §2

[7] = molecular target: T6, platelet-derived growth factor (PDGF)-BB (human, UniProt P01127 82-190); experiment: ELISA, peptide coated
T6 construct: mature; Purchased in mature form
T6 sequence (P01127 82-190): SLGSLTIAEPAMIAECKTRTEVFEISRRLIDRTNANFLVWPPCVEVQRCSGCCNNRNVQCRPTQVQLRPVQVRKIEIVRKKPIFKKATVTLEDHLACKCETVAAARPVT
In short: as §2

[8] = molecular target: T7, fibroblast growth factor (FGF)-2 (human, UniProt P09038 143-288); experiment: ELISA, peptide coated
T7 construct: mature; Purchased in mature form
T7 sequence (P09038 143-288): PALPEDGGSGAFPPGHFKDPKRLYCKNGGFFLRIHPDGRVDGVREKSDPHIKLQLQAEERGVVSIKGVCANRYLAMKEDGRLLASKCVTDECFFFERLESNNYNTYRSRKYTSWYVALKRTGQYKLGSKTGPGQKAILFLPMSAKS
In short: as §2

[9] = molecular target: T1, vascular endothelial growth factor …; experiment: ELISA, peptide coated
In short: as §2

B1: Scrambled HBD (peptide)
peptide: LYCEIARGYSLKRKVPDQIRSRKA
notes: also called scrambled vWF A1 HBD peptide
binding result [1]: no binding (tested: 1 µg/mL) | binding result [2]: no binding (tested: 1 µg/mL) | binding result [3]: no binding (tested: 1 µg/mL VEGF-A121 (single concentration))

ARKASRRSRQPARH (Chemically synthesized (Genscript)) [laminin α5 3312-3325 peptide (Linker)]
binding result [4]: no binding (tested: 1 µg/mL) | binding result [5]: no binding (tested: 1 µg/mL) | binding result [6]: no binding (tested: 1 µg/mL) | binding result [7]: no binding (tested: 1 µg/mL) | binding result [8]: no binding (tested: 1 µg/mL) | binding result [9]: no binding (tested: 1 µg/mL)
